According to article PMC6598250:

Molecular target: unfolded precursor form of maltose binding protein (preMBP) (E. coli)
Test: ITC; 120 uM SecB or SecB_(T10A) titrated into 20 uM preMBP; 25 °C; KPB buffer pH 7.4, 100 mM; MicroCal PEAQ-ITC; triplicate

Substance | Kd | dH | stoichiometry N
SecB chaperone, wild type (from UniProt P0AG86 1-153) (natural protein) | 61.7 µM | -1.48 kcal/mol | 3.08
SecB_(T10A) (from UniProt P0AG86 1-153) (natural protein) | 5.2 µM | -1.99 kcal/mol | 4.99
